T1: hexahistidine-tagged human IL-4Rα extracellular domain (human, UniProt P24394 26-232)
T1 construct: In the MSD assay the plate coat is the His-tagged ECD; also called human IL-4Rα ECD; Wild type receptor; not shown: hexahistidine tag
T1 sequence: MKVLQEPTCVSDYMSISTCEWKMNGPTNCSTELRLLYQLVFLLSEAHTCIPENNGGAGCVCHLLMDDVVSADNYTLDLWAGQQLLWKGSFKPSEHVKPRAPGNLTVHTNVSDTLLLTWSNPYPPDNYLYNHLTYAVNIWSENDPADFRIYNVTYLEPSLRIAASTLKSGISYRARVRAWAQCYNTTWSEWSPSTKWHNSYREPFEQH

T2: hexahistidine-tagged cynomolgus monkey IL-4Rα extracellular domain (cynomolgus monkey, UniProt P24394 26-231 (human entry))
T2 construct: also called cynomolgus monkey IL-4Rα ECD; not shown: hexahistidine tag
T2 chain: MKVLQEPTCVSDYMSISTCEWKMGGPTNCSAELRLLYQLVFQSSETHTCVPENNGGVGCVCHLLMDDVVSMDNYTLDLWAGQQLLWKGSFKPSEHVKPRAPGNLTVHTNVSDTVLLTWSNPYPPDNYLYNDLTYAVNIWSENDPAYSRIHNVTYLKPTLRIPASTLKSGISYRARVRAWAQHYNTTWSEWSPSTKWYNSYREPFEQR

B1: anti-human IL-4Rα antibody Ab1 (antibody, human IgG4 S228P, kappa)
heavy: QVQLVESGGGLVQPGGSLRLSCVASGFTFSHSSMNWVRQAPGKGLEWVSYISRATGAVYYADSVKGRFTISRDNAKNSLYLQMNSLRDEDTAVYYCAREPVFDYWGQGTLVTVSSASTKGPCVFPLAPCSRSTSESTAALGCLVKDYFPEPVTVSWNSGALTSGVHTFPAVLQSSGLYSLSSVVTVPSSSLGTKTYTCNVDHKPSNTKVDKRVESKYGPPCPPCPAPEFLGGPSVFLFPPKPKDTLMISRTPEVTCVVVDVSQEDPEVKFNWYVDGVEVHNAKTKPREEQFNSTYRVVSVLTVLHQDWLNGKEYKCKVSNKGLPSSIEKTISKAKGQPREPQVYTLPPSREEMTKNQVSLTCLVKGFYPSDICVEWESNGQPENNYKTTPPVLDSDGSFFLYSRLTVDKSRWQQGNVFSCSVMHEALHNHYTQKSLSLSLG
light: DIQMTQSPSAMSASVGDRVTITCRASQDISNYLAWFQQKPGKVPTRLIYAASSLQSGVPSRFSGSGSGTEFTLTISSLQPEDFATYYCLQWSSYPRTFGQGTKVEIKRTVAAPSVFIFPPSDEQLKSGTASVVCLLNNFYPREAKVQWKVDNALQSGNSQESVTEQDSKDSTYSLSSTLTLSKADYEKHKVYACEVTHQGLSSPVTKSFNRGEC
notes: human kappa light chain; also called anti-human IL-4Rα Ab1; unconjugated Ab1
B2: anti-human IL-4Rα Ab1 GC conjugate of Example 1b (n=4) (antibody, human IgG4 S228P, kappa)
heavy: B1 heavy
light: B1 light
modifications: glucocorticoid receptor agonist payload-linker (GC-L, Preparation 8) conjugated to the engineered cysteines at the 124 and 378 position of the heavy chain (EU numbering); n is 4 (average DAR 4.17 by RP-HPLC, 3.85 by TOF MS)

How the values were obtained:
[1] = molecular target: T1, hexahistidine-tagged human IL-4Rα …; assay: competition MSD ELISA (solution equilibrium, 37 °C), apparent KD, single experiment
Procedure: (§1) Example 3a. […] A 96-well multi-array plate (Meso Scale Diagnostics, Cat. #L15XA-3) was coated at 4° C. overnight with 0.5 μg/mL hexahistidine-tagged human or cynomolgus monkey IL-4Rα ECD in phosphate buffered saline (PBS). Following coating, plates were washed 10 times with 200 μL PBST (PBS with 0.05% Tween® 20) and blocked with 300 μL/well of PBS casein blocking buffer (Pierce, Cat. #37528) at 37° C. for 1 hour. Plates were then washed 10 times as above, and 50 μL of the preincubated antibody:IL-4Rα dilution series was transferred to the wells and incubated at 37° C. with 300 rpm shaking for […]. Plates were washed 10 times with PBST, 50 μL of 1 μg/mL anti-human antibody sulfo-tag 20 (Meso Scale Diagnostics, Cat. #R32AJ-1) was added to the plates for the assay of Table 7a, and anti-Human NHP Kappa Light chain SULFO-TAG 20 (Meso Scale Diagnostics, Cat #D20TF-6) was added to the plates for the assay of Table 7b, and plates were incubated at 37° C. with 300 rpm shaking for 30 minutes. Plates were washed 10 times with PBST, 150 μL/well of 1× Read Buffer T was added to the wells and analyzed on a SECTOR® Imager 6000 (Meso Scale Diagnostics) 15 min after buffer addition. The apparent KD is determined by fitting a sigmoidal curve to the electrochemiluminescence (ECL) response vs. log (soluble IL-4Rα concentration) using GraphPad Prism 9. Data is graphed with normalized ECL values.

[2] = molecular target: T2, hexahistidine-tagged cynomolgus monkey …; assay: as above
Procedure: as §1

[3] = molecular target: T3, human FcγRI (CD64) extracellular domain (human, UniProt P12314 16-292); assay: SPR (Biacore), antibody captured on protein A, FcγR ECD as analyte, 25 °C
T3 construct: extracellular domain
Procedure: Unreacted sites were blocked with a 7 minute injection of ethanolamine at 10 μL/minute. Injections of 2×10 μL of glycine, pH 1.5, was used to remove any noncovalently associated protein. Running buffer was 1×HBS-EP+(TEKNOVA, P/N H8022). The FcγR extracellular domains (ECDs)-FcγRI (CD64), FcγRIIA_131R, and FcγRIIA_131H (CD32a), FcγRIIIA_158V, FcγRIIIA_158F (CD16a), and FcγRIIb (CD32b) were produced from stable CHO cell expression and purified using IgG Sepharose and size exclusion chromatography. For FcγRI binding, antibodies were diluted to […] in running buffer, and approximately 150 RU of each antibody was captured in FCs 2 through 4 (RU captured). FC1 was the reference FC, therefore no antibody was captured in FC1. […] Duplicate injections of each concentration were injected over all FCs at 40 μL/minute for 120 seconds followed by a 1200 second dissociation phase. Regeneration was performed by injecting 15 μL of 10 mM glycine, pH 1.5, at 30 μL/minute over all FCs. […] The affinity (KD) was calculated using either steady state equilibrium analysis with the Scrubber 2 Biacore Evaluation Software or a “1:1 (Langmuir) binding” model in BIA Evaluation. […] The affinity (KD) was calculated using the steady state equilibrium analysis with the Scrubber 2 Biacore Evaluation Software. […]

T3 sequence (P12314 16-292): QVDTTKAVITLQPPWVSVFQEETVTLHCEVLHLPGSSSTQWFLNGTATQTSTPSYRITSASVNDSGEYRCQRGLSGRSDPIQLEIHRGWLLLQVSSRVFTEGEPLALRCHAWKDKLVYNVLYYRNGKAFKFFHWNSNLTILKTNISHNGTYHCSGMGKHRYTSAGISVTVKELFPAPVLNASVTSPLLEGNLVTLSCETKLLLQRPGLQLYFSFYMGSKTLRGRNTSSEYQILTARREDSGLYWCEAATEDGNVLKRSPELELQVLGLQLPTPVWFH

Binder	Kd [1]	Kd [2]	Kd [3]
B1	0.0208 nM	0.0233 nM	–
B2	–	–	0.64 nM
